Our source for the EC50 (read off the curve) and IC50 (read off the curve) values is patent US20240166729A1.

For experiment [1], the target named is Peptide #50 (enteropathogenic E. coli (EPEC)).
Experiment [2] concerns the target Peptide #49 (enteropathogenic E. coli (EPEC)).
Experiment [3] addresses Peptide #49 + 50 (enteropathogenic E. coli (EPEC)).
The target of experiment [4] is mAb-EspB-B7.
Experiment [5] concerns the target mAb-EspB-B7. This is another data set of the same source.

Where two headings read alike, the source gives them in different places.

B1: mAb-EspB-B7 (antibody, V domains shown)
VH: EVQLLESGGGLVQPGGSLRLSCAASGFTFSHYAMNWVRQAPGKGLEWVSAINSNGDSTYYPDTVKDRFTISRDNSKNTLYLQMNSLRAEDTAVYYCARDRRAGYFDYWGQGTLVTVSS
VL: DIVLTQPPSASGTPGQRVTISCSGSRDNIGKNYVSWYQQLPGTAPKLLIYRNNQRPSGVPDRFSGSKSGTSASLAISGLRSEDEADYYCSAWDTSLNAYVFGPGTQLTVL
With B1, the EC50 (read off the curve) was 0.4 µg/mL in experiment [1], 0.5 µg/mL in experiment [2] and 0.3 µg/mL in experiment [3].
In the experiment with mAb-EspB-B7 [4], CTSAQKASQVAEEAADC (modifications not checked) [Peptide #49] came in with an IC50 (read off the curve) of 0.8 µg/mL.
Molecule CTSAQKASQVAEEAADAAQEC (modifications not checked) [Peptide #49 + 50] showed an IC50 (read off the curve) with mAb-EspB-B7 [5] of 2 µg/mL.

As a reminder, the EC50 (read off the curve) is the concentration needed to bring the measured effect to its halfway point.
